# System: phospho-Thr75 DARPP-32
substance,measurement,value
purified catalytic subunit of cAMP-dependent protein kinase (PKA),phosphorylation of Thr34 DARPP-32 by PKA in vitro,The ability of PKA to phosphorylate Thr34 DARPP-32 in vitro was virtually abolished by prior phosphorylation at Thr75
